Reference: US20140193401A1 (published 2014)

Molecular target: pertussis toxin holotoxin (Bordetella pertussis, UniProt P04977 35-269; P04978 31-226; P04979 32-227; P0A3R5 43-152; P04981 36-133)
Assay: cell-based or functional assay

B1: 1B7 Fab (Fab)
chain: DIQMTQSPALMSASPGEKVTMTCSASSSVSFMYWYQQKPRSSPKPWIYLTSNLPSGVPARFSGSGSGTSYSLTISSMEAEDAATYYCQQWSSHPPTFGSGTKLEIKRGGGGSGGGGSGGGGSGGGGSEVQLQQSGSELVRPGASVKLSCKASGYKFTSYWMHWVKQRPGQGLEWIGNIFPGSGSTNYDEKFNSKATLTVDTSSNTAYMQLSSLTSEDSAVYYCTRWLSGAYFDYWGQGTTLTVSSASGA
In Vitro Neutralization (nM), minimum protective concentration, CHO clustering assay: 42 nM
